Test results reported in IntAct's records for PubMed 30814734.

B1: BTB/POZ domain-containing protein KCTD16 (Homo sapiens), Q68DU8 (parent)
chain: MALSGNCSRYYPREQGSAVPNSFPEVVELNVGGQVYFTRHSTLISIPHSLLWKMFSPKRDTANDLAKDSKGRFFIDRDGFLFRYILDYLRDRQVVLPDHFPEKGRLKREAEYFQLPDLVKLLTPDEIKQSPDEFCHSDFEDASQGSDTRICPPSSLLPADRKWGFITVGYRGSCTLGREGQADAKFRRVPRILVCGRISLAKEVFGETLNESRDPDRAPERYTSRFYLKFKHLERAFDMLSECGFHMVACNSSVTASFINQYTDDKIWSSYTEYVFYREPSRWSPSHCDCCCKNGKGDKEGESGTSCNDLSTSSCDSQSEASSPQETVICGPVTRQTNIQTLDRPIKKGPVQLIQQSEMRRKSDLLRTLTSGSRESNMSSKKKAVKEKLSIEEELEKCIQDFLKIKIPDRFPERKHPWQSELLRKYHL
partner: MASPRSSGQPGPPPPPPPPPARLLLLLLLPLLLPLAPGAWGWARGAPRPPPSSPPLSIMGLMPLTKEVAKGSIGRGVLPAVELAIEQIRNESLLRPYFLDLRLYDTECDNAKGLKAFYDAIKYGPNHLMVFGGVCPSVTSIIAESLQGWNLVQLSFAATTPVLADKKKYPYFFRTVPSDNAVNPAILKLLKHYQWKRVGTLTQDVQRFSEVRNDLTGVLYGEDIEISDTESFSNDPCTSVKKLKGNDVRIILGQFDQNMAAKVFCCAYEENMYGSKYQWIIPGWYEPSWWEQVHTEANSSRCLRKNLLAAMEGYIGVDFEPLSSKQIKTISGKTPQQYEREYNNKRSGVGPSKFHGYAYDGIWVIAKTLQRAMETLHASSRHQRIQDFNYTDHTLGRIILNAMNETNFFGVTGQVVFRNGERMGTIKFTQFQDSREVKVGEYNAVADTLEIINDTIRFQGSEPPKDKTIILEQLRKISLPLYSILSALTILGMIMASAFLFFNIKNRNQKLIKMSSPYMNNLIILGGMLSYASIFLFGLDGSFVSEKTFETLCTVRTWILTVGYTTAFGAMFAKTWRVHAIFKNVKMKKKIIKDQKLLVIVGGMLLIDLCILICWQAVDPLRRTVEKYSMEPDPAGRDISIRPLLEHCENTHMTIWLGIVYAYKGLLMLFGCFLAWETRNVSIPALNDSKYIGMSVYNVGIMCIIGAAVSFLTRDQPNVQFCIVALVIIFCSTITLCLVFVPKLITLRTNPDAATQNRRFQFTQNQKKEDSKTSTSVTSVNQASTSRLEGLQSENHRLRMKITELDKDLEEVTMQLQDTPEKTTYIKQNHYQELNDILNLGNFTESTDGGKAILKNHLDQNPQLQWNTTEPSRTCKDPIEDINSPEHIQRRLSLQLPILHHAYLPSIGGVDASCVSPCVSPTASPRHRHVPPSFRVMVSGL

Variants of: B1
Conditions: with gabr2_human GABBR2, O75899

effect of a mutation on the interaction | Variant
disrupting interaction strength | F80A
